Laboratory results published in article PMC11736000, “Structural and functional analysis of a bile salt hydrolase from the bison microbiome” (The Journal of Biological Chemistry, 2024).

What was measured:
Experiment in all cases: steady-state kinetics (KM), o-phthaladehyde assay; HPLC/MS
Assay type in all cases: biochemical, Arthrobacter citreus
[1] = substrate: C[C@H](CCC(=O)NCC(=O)O)[C@H]1CC[C@H]2[C@@H]3CC[C@@H]4C[C@H](O)CC[C@]4(C)[C@H]3C[C@H](O)[C@]12C
[2] = substrate: C[C@H](CCC(=O)NCC(=O)O)[C@H]1CC[C@H]2[C@@H]3[C@H](O)C[C@@H]4C[C@H](O)CC[C@]4(C)[C@H]3C[C@H](O)[C@]12C
[3] = substrate: C[C@H](CCC(=O)NCCS(=O)(=O)O)[C@H]1CC[C@H]2[C@@H]3CC[C@@H]4C[C@H](O)CC[C@]4(C)[C@H]3C[C@H](O)[C@]12C

B1: bile salt hydrolase from Arthrobacter citreus EINP1 (BSHAc) (Arthrobacter citreus) (protein)
chain: CTGIRYSDGSGNLYLARNLDWTSDFGERVVVTPTGYTTKSPFGAVPAIRHAVIGMGIVQEDTPLYFDCGNDAGLAVAGLNFPGYAQYATEAVDGATNVAAFEFPLWVASQFASVDEVEAALADVVIVDRPINDKYPSSLLHWIIGDSKRAIVVEYTSDGLHVFDDDVDVLANQPGFGWHHENLRNYLNASPDFPEKIVLNRADLVPFGSGSLMRGIPGDYYSPSRFVRAAYVHAHYPGKSTEEENVSRAFHTLQQVAMVDGSAAMGSGEFEKTTYTGLFSSRTMTYYWNTYEDPAVRSVAMADHAADGTELVVV
notes: C-terminally hexahistidine-tagged recombinant BSHAc; NCBI WP_342023006.1
How did the Km [1] turn out when B1 was run?
Its Km is 380 µM.

And the kcat [1]?
Its kcat is 1630 ± 40 s⁻¹.

What about the kcat/Km [1] of the same protein?
The kcat/Km was 4.3e+06 ± 400000 M⁻¹ s⁻¹.

And the Km [2]?
Its Km is 1700 µM.

And the kcat [2]?
The kcat was 1500 ± 50 s⁻¹.

What about the kcat/Km [2] of the same protein?
The kcat/Km was 880000 ± 10000 M⁻¹ s⁻¹.

And the Km [3]?
Its Km is 740 µM.

And the kcat [3]?
The kcat was 342 ± 6 s⁻¹.

And the kcat/Km [3]?
Its kcat/Km is 460000 ± 50000 M⁻¹ s⁻¹.
